Assay results published in patent US20220242944A1.

Target: recombinant human PDGF-B (human) (UniProt P01127)
Assay: SPR (Biacore T200), antibody captured by anti-human Fc, antigen as analyte, 25 degrees C, pH 7.4, 1:1 model

Sequence of UniProt P01127 (P01127 82-190 limits assumed): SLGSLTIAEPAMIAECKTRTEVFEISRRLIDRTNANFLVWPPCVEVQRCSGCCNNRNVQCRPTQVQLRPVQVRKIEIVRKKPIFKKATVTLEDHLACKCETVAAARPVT

Binder | Kd [nM]
CPR001-GL-F1332m (antibody, V domains shown) VH: EVQLLESGGGLVQPGGSLRLSCAASGFTFSSYAMSWVRQAPGKGLEWVSYISDDGSLKYYADSVKGRFTISRDNSKNTLYLQMNSLRAEDTAVYYCAKHPYWYGGQLDLWGQGTLVTVSS VL: SYELTQPPSVSVSPGQTASITCSGDSLGSYFVHWYQQKPGQSPVLVIYDDSNRPSGIPERFSGSNSGNTATLTISGTQAMDEADYYCSAFTHNSDVFGGGTKLTVL | 0.0202
CPR001GLVH/xIC17-SG181v14hk (bispecific antibody, part only; not given: IC17 control arm and constant region, V domains shown, part only) VH: EVQLLESGGGLVQPGGSLRLSCAASGFTFSSYAMSWVRQAPGKGLEWVSYISDDGSLKYYADSVKGRFTISRDNSKNTLYLQMNSLRAEDTAVYYCAKHPYWYGGQLDLWGQGTLVTVSS VL: SYELTQPPSVSVSPGQTASITCSGDSLGSYFVHWYQQKPGQSPVLVIYDDSNRPSGIPERFSGSNSGNTATLTISGTQAMDEADYYCSAFTHNSDVFGGGTKLTVL | 0.0165
